What all share (assay): SPR, antibody captured, C2 as analyte;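 note: biacore SPR at 37 °C, anti-C2 mAbs captured via goat anti-human IgG on CM5 chips, double-referenced sensorgrams fit to a 1:1 kinetic or steady-state model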
(In general: In SPR one partner is held on a chip, and binding of the other changes the refractive index at the surface.)

Assay [1] concerns the target T1, human C2 P718A (human, UniProt P06681 21-752).
T1 sequence: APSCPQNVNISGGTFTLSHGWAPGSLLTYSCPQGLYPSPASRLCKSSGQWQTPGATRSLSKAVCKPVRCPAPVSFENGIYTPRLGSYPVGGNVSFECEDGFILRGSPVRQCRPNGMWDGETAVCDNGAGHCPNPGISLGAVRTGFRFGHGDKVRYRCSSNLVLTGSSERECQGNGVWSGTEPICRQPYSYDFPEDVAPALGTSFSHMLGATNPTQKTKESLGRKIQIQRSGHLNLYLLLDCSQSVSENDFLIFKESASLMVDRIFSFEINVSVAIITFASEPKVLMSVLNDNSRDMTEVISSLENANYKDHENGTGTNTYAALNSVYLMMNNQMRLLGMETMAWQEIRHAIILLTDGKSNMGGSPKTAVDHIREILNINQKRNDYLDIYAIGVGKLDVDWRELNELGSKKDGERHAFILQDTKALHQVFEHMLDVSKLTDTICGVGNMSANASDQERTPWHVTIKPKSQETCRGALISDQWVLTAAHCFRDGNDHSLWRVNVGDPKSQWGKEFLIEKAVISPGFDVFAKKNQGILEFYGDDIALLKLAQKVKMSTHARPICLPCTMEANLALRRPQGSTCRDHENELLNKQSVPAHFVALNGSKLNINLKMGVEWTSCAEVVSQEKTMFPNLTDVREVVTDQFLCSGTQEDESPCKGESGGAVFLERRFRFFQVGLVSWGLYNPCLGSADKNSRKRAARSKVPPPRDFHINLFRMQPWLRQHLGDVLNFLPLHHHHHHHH

Assay [2] has as its target T2, human C2 L279A (human, UniProt P06681 21-752).
T2 sequence: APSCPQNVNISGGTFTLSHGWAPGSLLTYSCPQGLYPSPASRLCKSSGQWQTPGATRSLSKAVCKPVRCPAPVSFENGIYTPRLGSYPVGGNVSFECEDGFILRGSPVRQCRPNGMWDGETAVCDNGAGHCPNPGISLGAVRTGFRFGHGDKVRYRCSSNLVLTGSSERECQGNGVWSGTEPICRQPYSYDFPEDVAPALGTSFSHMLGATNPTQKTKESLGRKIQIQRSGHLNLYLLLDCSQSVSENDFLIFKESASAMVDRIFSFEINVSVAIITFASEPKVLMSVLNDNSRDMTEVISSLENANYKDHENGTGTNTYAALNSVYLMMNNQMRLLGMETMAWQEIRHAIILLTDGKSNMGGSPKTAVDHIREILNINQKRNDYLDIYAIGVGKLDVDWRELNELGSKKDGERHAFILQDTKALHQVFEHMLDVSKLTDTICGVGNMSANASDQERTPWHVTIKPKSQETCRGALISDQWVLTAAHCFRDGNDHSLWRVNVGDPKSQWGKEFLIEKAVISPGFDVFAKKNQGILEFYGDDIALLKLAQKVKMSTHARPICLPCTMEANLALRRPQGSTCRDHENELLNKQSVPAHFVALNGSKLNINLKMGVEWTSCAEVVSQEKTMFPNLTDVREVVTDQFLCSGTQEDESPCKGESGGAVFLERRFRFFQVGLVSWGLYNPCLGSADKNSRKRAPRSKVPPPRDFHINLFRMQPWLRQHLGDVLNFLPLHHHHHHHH

Assay [3] concerns the target T3, human C2 H446A (human, UniProt P06681 21-752).
T3 sequence: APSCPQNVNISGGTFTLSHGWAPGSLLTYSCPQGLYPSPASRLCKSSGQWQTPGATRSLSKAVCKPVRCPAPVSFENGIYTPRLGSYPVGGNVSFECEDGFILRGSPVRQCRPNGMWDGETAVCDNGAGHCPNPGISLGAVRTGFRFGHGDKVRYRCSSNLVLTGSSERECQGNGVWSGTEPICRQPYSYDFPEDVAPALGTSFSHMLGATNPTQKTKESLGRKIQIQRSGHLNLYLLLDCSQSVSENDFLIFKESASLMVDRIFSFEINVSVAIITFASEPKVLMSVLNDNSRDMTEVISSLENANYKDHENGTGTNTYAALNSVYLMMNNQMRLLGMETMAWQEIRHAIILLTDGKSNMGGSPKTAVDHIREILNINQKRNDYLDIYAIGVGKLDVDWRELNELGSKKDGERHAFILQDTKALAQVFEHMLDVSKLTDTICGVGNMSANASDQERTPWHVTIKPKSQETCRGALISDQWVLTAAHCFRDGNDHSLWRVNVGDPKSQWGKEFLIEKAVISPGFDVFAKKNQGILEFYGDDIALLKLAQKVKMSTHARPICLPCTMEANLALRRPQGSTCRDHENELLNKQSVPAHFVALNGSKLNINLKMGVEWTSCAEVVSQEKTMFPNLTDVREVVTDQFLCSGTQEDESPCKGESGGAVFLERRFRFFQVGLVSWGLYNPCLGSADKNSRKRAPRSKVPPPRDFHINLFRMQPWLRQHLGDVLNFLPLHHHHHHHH

Assay [4] deals with T4, human C2 R493A (human, UniProt P06681 21-752).
T4 sequence: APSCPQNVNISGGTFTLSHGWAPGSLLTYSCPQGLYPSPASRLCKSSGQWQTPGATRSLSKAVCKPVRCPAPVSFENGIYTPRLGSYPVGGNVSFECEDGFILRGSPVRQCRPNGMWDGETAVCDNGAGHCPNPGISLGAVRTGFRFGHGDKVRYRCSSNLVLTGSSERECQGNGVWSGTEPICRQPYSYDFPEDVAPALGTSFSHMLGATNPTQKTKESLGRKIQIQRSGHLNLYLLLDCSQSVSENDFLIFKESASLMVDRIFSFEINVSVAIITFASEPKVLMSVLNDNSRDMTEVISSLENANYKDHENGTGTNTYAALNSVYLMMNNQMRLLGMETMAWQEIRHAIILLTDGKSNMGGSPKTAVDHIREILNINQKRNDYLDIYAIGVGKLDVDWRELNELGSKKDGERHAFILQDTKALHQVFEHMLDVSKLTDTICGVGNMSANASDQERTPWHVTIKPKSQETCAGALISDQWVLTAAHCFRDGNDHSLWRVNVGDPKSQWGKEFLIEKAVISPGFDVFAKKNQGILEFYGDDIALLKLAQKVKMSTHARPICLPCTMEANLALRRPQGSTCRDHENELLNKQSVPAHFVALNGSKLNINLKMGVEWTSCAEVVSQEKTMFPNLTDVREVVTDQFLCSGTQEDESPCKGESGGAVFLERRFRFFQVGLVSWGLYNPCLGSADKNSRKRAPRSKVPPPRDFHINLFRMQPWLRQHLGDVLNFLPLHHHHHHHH

B1: RF16-226 (antibody, human IgG4 S228P, lambda)
heavy: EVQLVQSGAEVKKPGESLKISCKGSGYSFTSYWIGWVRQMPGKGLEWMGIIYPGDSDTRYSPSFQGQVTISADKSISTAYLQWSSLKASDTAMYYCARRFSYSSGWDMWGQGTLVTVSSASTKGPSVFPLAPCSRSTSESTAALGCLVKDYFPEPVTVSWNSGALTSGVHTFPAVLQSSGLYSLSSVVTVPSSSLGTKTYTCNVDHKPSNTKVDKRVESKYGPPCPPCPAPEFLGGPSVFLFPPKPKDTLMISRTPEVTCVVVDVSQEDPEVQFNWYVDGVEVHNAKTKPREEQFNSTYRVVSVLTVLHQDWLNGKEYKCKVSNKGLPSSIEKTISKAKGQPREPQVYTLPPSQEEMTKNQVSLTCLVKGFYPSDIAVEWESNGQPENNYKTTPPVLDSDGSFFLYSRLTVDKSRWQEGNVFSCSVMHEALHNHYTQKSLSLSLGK
light: SYELTQPPSVSVSPGQTARITCSGDALTSKYVAWYQQKSGLAPLLVIYEDTRRPSGIPAKFSGSSSGSVATLTISGAHGDDEADYYCYSTDASGHQRVFGGGTKLTVLSQPKAAPSVTLFPPSSEELQANKATLVCLISDFYPGAVTVAWKADGSPVKAGVETTKPSKQSNNKYAASSYLSLTPEQWKSHRSYSCQVTHEGSTVEKTVAPTECS
notes: pH-dependent anti-C2 antibody from a phage display library; also called WT
Take B1: the equilibrium dissociation constant (Kd) – broadly, the free concentration of one partner at which half of the binding sites on the other are occupied at equilibrium, for simple one-to-one binding – in assay [1] is 15.2 nM; in assay [2] it was 54.4 nM; in assay [3], 16.3 nM; in assay [4] it was 24.3 nM.

The values above are taken from patent US20220332804A1 (CSL INNOVATION, published 2022).
